Measurements reported in publication PMC7883056 (The EMBO Journal, 2021).

Biological target: T1, N-GST-tagged Ythdf (full length) (Drosophila melanogaster, UniProt Q9VBZ5 1-700)
T1 sequence: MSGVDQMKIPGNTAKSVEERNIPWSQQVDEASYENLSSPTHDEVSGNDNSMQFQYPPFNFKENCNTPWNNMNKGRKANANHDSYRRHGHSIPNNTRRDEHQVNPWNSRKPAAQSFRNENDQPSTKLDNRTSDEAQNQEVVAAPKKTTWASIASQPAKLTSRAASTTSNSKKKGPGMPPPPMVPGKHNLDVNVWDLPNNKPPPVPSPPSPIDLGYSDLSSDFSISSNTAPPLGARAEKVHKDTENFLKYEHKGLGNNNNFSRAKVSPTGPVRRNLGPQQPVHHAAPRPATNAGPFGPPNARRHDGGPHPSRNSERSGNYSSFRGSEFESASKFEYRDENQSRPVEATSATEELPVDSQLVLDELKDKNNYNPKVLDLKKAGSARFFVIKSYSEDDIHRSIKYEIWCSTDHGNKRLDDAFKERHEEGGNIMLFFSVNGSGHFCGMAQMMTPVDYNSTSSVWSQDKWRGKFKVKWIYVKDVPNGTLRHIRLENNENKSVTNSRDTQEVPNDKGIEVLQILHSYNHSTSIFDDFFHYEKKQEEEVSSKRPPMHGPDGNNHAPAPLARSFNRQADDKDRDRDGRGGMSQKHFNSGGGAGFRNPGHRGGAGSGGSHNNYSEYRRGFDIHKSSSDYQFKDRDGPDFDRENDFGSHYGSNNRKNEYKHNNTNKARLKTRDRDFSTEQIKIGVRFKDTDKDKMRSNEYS
Assay: pull-down

B1: N-His6-tagged NT-Fmr1 (220-684) (domain or fragment)
chain: not shown
  binding result: binds
